Results: patent US20230331848A1 (BIOSION, published 2023)
Changes are numbered by the printed parent chain.

T1: recombinant mouse PD-1-his protein (Cat#:50124-M08H, Sino Biological Inc) (mouse, UniProt Q02242 25-167)
T1 construct: Bought protein used in Biacore and indirect ELISA; not shown: his tag
T1 sequence (looked up): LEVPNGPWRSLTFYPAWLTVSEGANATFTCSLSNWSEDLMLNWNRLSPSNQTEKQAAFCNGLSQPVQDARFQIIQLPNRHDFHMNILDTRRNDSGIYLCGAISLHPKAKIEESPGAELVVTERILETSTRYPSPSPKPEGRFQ

T2: full length mouse PD-1 expressed on 293F-mouse PD-1 cells (mouse, UniProt Q02242 25-288)
T2 construct: also called cell surface mouse PD-1
T2 sequence: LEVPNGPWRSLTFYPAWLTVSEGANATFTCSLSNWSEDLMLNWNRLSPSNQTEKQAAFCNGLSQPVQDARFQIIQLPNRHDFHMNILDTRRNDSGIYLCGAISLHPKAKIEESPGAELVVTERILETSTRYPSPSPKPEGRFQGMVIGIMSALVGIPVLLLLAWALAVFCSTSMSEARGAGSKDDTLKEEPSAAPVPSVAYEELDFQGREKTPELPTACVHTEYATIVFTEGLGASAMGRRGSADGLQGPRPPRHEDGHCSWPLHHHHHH

B1: mouse anti-PD-1 monoclonal antibody E1A9C8A7 (antibody, V domains shown)
VH: QVQLQQSGAEVVRPGVSVRISCKGSGYTFSDYVMHWMKQSHGESLEWIGVISTYHIPAVYNQKFKGKATMTVDKSSSTVYLELARLTSEDSAIYYCAREVYGDSYYFDVWGAGTTVTVSS
VL: DVLMTQIPLSLPVSLGDQVSISCRSSQSIVHSNGNTYLEWYLQKPGQSPKLLIYKVSNRFSGVPDRFSGSGSGTDFTLKISRVEAEDLGVYYCFQGSHVPYTFGGGTKLEIK
notes: Hybridoma-derived mouse mAb purified on Protein A; also called Mouse E1A9C8A7
B2: mouse anti-PD-1 monoclonal antibody E2G4E10B7 (antibody, V domains shown)
VH: QVQLQQSGAELVRPGVSVKISCKGSGYTFTDYVMHWVRQSHAKSLEWIGVISTHFGDGVYNQKFKGKATMTVDKSSSTAYMELARLTSEDSAIYYCAREVYGDSWYFDVWGAGTTVTVSS
VL: B1 VL with I7T, V19A, I29L, N33D, V83L
notes: Hybridoma-derived mouse mAb; also called Mouse E2G4E10B7

Tests used:
[1] = molecular target: T1, recombinant mouse PD-1-his protein …; assay: SPR (Biacore T200), antibody captured, PD-1-his in flow, 1:1 fit
Text: The purified anti-PD-1 mouse monoclonal antibodies (mAbs) generated in Example 1 were characterized for binding affinities and binding kinetics by Biacore T200 system (GE healthcare, Pittsburgh, Pa., USA).
Briefly, Goat-Anti-Mouse IgG (Cat#: BR100838, GE healthcare, Mouse Antibody Capture Kit) was covalently linked to a CMS chip (carboxy methyl dextran coated chip, Cat#: BR100530, GE healthcare) via primary amines using a standard amine coupling kit (GE healthcare, Pittsburgh, Pa., USA) provided by Biacore. Un-reacted moieties on the biosensor surface were blocked with ethanolamine. A Protein G chip (Cat#:29-1793-15, GE healthcare) was used for the positive controls affinity determination. The anti-PD-1 antibodies of the disclosure and the two positive controls at the concentration of 2 μg/ml were respectively flowed onto the chip at a flow rate of 10 μl/min. Then, serially diluted recombinant human PD-1-his protein (Cat#:10377-H08H, Sino biological Inc.), cynomolgus PD-1-his protein (Cat#:PD1-05223, Acro biosystems Inc.) and recombinant mouse PD-1-his protein (Cat#:50124-M08H, Sino Biological Inc), 2-fold dilution in HBS-EP⁺ buffer (provided by Biacore) starting at 200 nM, were respecitvely flowed onto the chip at a flow rate of 30 μl/min. The antigen-antibody association kinetics was followed for 2 minutes and the dissociation kinetics was followed for 10 minutes. The association and dissociation curves were fit to a 1:1 Langmuir binding model using Biacore evaluation software.

[2] = molecular target: T1, recombinant mouse PD-1-his protein …; assay: indirect ELISA on coated mouse PD-1-his; unit from the axis 'Con of mAb, nM.'
Protocol: (§1) Briefly, 96-well micro plates were coated with 100 μl 2 μg/ml mouse PD-1-his (Cat#:50124-M08H, Sino Biological Inc) or 2 μg,/ml cynomolgus PD-1-his (Cat#:PD1-05223, Acro biosystems Inc.) in carbonate/bicarbonate buffer (pH 9.6) for 2 hours at 37° C. Plates were washed once with wash buffer (PBST, PBS+0.05% Tween-20) and then blocked with 200 μl blocking buffer (5% w/v non-fatty milk in PBST) for 2 hours at 37° C. […] ELISA plates were washed 4 times and incubated with Peroxidase AffiniPure goat anti-mouse IgG, Fcγ Fragment Specific (1:5000 dilution in PBST buffer, Cat#:115-035-071, Jackson ImmunoResearch Laboratories, Inc., 100 μl/well) or Peroxidase AffiniPure F(ab′)₂ Fragment Goat Anti-Human IgG, Fcγ fragment specific (Cat#:109-036-098, Jackson ImmunoResearch, for the controls) for 40 minutes at 37° C. After a final wash, plates were incubated with 100 μl/well TMB (Cat#:TMB-S-002, innoreagents) at room temperature. The reaction was stopped 3-10 minutes later with 50 μl/well 1M H₂SO₄, and the absorbance was read on a microplate reader using dual wavelength mode with 450 nm for TMB and 630 nm as the reference wavelength. Then the OD (450-630) values were plotted against antibody concentrations. Data was analyzed using GraphPad Prism software and EC₅₀ values were reported.

[3] = molecular target: T3, cynomolgus PD-1-his protein (Cat#:PD1-05223, Acro biosystems Inc.) (cynomolgus, UniProt B0LAJ3 25-170); assay: indirect ELISA on coated cynomolgus PD-1-his; unit from the axis 'Con of mAb, nM.'
T3 construct: Bought protein used in Biacore and indirect ELISA; also called monkey PD-1; Cyno PD-1
T3 sequence (B0LAJ3 entry or part of it limits assumed): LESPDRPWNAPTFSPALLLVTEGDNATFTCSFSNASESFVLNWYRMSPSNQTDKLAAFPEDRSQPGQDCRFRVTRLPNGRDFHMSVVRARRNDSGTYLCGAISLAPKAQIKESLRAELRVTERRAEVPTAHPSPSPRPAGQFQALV
Protocol: as §1

[4] = molecular target: T2, full length mouse PD-1 expressed on …; assay: cell-based binding FACS on 293F-mouse PD-1 cells (MFI); unit from the axis 'Con of mAb, nM.'
Protocol: The binding activities of the mouse anti-PD-1 antibodies to mouse PD-1s expressed on cell surface were tested by flow cytometry (FACS), using Biosion in-house prepared 293F-mouse PD-1 cells expressing full length mouse PD-1 (SEQ ID NO.: 27) on cell membrane. The 293F-mouse PD-1 cells were prepared by transfecting 293F cells with a PCMV-T-P plasmid inserted with mouse PD-1 coding sequence between EcoR I and XbaI sites, following the instruction of lipofectamine 3000 transfection reagent (Thermo Fisher).
In specific, the 293F-mouse PD-1 cells and GS-J2/PD-1 cells were respectively harvested from cell culture flasks, washed twice and re-suspended in PBS containing 2% v/v Fetal Bovine Serum (FACS buffer). Then, 2×10⁵ cells per well were incubated in 96 well-plates with 100 μl of the anti-PD1 antibodies or controls at various concentrations for 40 minutes on ice. […] Following an incubation of 40 minutes at 4° C. in dark, cells were washed three times and re-suspended in FACS buffer. Fluorescence was measured using a Becton Dickinson FACS Canto II-HTS equipment and plotted against antibody concentrations. Data was analyzed using GraphPad Prism software and EC₅₀ values were reported.

Row | Kd [1] [nM] | koff [1] [s⁻¹] | kon [1] [M⁻¹ s⁻¹] | EC50 [2] [nM] | EC50 [3] [nM] | EC50 [4] [nM] | Binder
1 | 150 | 0.031 | 207000 | 0.185 | 0.121 | 1.27 | B1
2 | 29.8 | 0.00553 | 186000 | 0.34 | 0.166 | 0.87 | B2
